Experimental data taken from PMC2711036 (Molecular cell, 2009).

T1: Srs2^CΔ276 (S. cerevisiae, UniProt P12954 1-898)
T1 sequence (looked up): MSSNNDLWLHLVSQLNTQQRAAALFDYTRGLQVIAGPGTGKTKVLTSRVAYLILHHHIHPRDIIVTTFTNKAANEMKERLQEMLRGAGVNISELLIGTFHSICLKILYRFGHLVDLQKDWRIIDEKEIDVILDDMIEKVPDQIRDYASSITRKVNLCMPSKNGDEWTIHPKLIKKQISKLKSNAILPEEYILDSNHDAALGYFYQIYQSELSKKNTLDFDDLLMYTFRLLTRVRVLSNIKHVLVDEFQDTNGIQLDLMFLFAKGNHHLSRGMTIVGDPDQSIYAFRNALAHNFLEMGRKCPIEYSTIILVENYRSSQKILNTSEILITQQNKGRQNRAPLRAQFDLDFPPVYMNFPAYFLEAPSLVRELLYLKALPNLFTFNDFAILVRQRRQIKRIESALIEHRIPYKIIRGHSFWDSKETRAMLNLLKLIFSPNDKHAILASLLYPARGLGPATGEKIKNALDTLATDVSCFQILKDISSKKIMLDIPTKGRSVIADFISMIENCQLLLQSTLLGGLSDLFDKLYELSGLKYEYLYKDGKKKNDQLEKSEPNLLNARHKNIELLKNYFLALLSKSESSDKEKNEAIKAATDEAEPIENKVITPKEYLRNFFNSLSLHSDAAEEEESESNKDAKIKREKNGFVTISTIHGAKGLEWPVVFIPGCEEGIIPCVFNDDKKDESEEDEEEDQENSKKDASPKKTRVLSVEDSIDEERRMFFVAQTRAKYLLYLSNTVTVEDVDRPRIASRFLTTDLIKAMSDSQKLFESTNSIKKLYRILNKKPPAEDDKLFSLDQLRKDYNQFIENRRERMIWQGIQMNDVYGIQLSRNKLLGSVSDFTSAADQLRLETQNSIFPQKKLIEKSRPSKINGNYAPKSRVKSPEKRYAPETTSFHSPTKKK


How the values were obtained:
[1] = target: Rad51-E221D (Saccharomyces cerevisiae, UniProt P25454 1-400, E221D); experiment: stopped-flow Cy3 fluorescence
[2] = target: Rad51 (yRad51 wild type) (Saccharomyces cerevisiae, UniProt P25454 1-400); experiment: stopped-flow Cy3 fluorescence
[3] = target: T1, Srs2^CΔ276; experiment: SPR

Row | Kd [3] [µM] | Binder | apparent K (half saturation) [1] [nM as printed] | apparent K (half saturation) [2] [nM as printed]
1 | – | 5'-Cy3-dT79 (ssDNA) DNA: TTTTTTTTTTTTTTTTTTTTTTTTTTTTTTTTTTTTTTTTTTTTTTTTTTTTTTTTTTTTTTTTTTTTTTTTTTTTTTT | 2.17 ± 0.6 | 1.55 ± 0.3
2 | 15.2 ± 5 | Rad51 (natural protein, S. cerevisiae (yeast Rad51, yRad51), UniProt P25454 1-400, looked up) MSQVQEQHISESQLQYGNGSLMSTVPADLSQSVVDGNGNGSSEDIEATNGSGDGGGLQEQAEAQGEMEDEAYDEAALGSFVPIEKLQVNGITMADVKKLRESGLHTAEAVAYAPRKDLLEIKGISEAKADKLLNEAARLVPMGFVTAADFHMRRSELICLTTGSKNLDTLLGGGVETGSITELFGEFRTGKSQLCHTLAVTCQIPLDIGGGEGKCLYIDTEGTFRPVRLVSIAQRFGLDPDDALNNVAYARAYNADHQLRLLDAAAQMMSESRFSLIVVDSVMALYRTDFSGRGELSARQMHLAKFMRALQRLADQFGVAVVVTNQVVAQVDGGMAFNPDPKKPIGGNIMAHSSTTRLGFKKGKGCQRLCKVVDSPCLPEAECVFAIYEDGVGDPREEDE | – | –
